The data set relates to iron-deficiency-anemia-induced animals. In kind it is in vivo, Sprague-Dawley rats. On the procedure: The composition containing bovine myoglobin prepared according to the present invention was administered to iron-deficiency-anemia-induced animals, whereby the effectiveness of the composition containing bovine myoglobin on alleviating anemia was evaluated. Specifically, after 2 weeks acclimation period, thirty 9-week old Sprague-Dawley rats (female) were divided into 3 groups of 10 rats per group, among which one group was fed with normal feed in an amount of 10% of body weight daily for one month (Group 1; control), and the remaining two groups were fed with iron-deficient feed in an amount of 10% of body weight daily for 6 weeks to induce iron-deficiency anemia (Group 2 and Group 3). After 6 weeks of feeding, it was confirmed that iron-deficiency anemia was induced in the individual rat belonging to Group 2 and Group 3. Then, one of the anemia-induced groups was orally administered once a day with saline alone (Group 2), and the other anemia-induced group was orally administered once a day with solution containing bovine myoglobin (0.1 mg Fe/500 μ1 solution, Group 3). The administration continued for 5 weeks. During 5 weeks of administration to Group 2 and Group 3, Group 1 was continuously fed with normal feed, and Group 2 and Group 3 were fed with iron-deficient feed. […] After 5 weeks of administration, blood was collected, and whether anemia was alleviated was evaluated.

The mark [1] stands for this setting: female Sprague-Dawley rats, iron-deficient feed, oral once a day 0.1 mg Fe/500 μl solution for 5 weeks.

B1: bovine myoglobin (protein)
chain: MGLSDGEWQLVLNAWGKVEADVAGHGQEVLIRLFTGHPETLEKFDKFKHLKTEAEMKASEDLKKHGNTVLTALGGILKKKGHHEAEVKHLAESHANKHKIPVKYLEFISDAIIHVLHAKHPSDFGADAQAAMSKALELFRNDMAAQYKVLGFHG
modifications: heme cofactor; Bovine myoglobin
For the molecule B1, the “Effectiveness at alleviating iron-deficiency anemia” value (conclusion from blood analysis after 5 weeks of administration) is reported as “effective at alleviating iron-deficiency anemia”. Also, under setting [1], the “Blood test Hematocrit” value turned out to be 35.8 ± 1.9%, the “Blood test Hemoglobin content” value was 14.0 ± 0.7 g/dL and the “Weight of rats on 5 weeks after administration” value is 318.9 ± 1.1 g. Besides, for the setting “rat, in vivo, po”, the “Occurrence of abnormal symptoms during the administration period” value is on record as “no abnormal symptoms”.

Values taken from patent US20230073947A1, “A METHOD FOR PREPARING BOVINE MYOGLOBIN USING ESCHERICHIA COLI” (iNtRON Biotechnology, Inc., priority 2020, published 2023).
